Publication PMC3855536

Substrate: C=C(O[C@@H]1C=C(C(=O)O)C=C[C@H]1O)C(=O)O
Experiment: steady-state kinetics
Format: biochemical, Thermus thermophilus
Settings: dehydration of chorismate to 12

B1: MqnA (TTHA0803) (Thermus thermophilus HB8) (protein)
chain: MRPYVLGLPRYANVAPLHHFLRLEGFRVLHAVPAELNRLLLSGEVGLSLVSSYFYLKHQDSLGLLPDFSVAVLGRVYSVNLFHKGALPHLARVALTTESATSVALLKLLLKEAGAGPRYERREGGLELLSAYDGVLLIGDRAIKAYAALLPEVPETPHALPTRFGEVEVADLSTLWFQRTHLPFVFAVWAYRRENPPPKALVQALREARREGLGRLREVAEAEARRLGVHPLLLQHYLWNFRYHLEEPDRLGLKAFAEALGLPFAPMFYPE
- Km: 161.6 ± 7.1 µM
- kcat: 1.27 ± .02 s⁻¹
